According to US20040170955A1 (University of Texas, published 2004):
Ends that are not written are not given here.

Columns and labels:
[1] = biological target: GST-β3cyto (GST fusion protein of the β3 integrin cytoplasmic domain) (UniProt P05106); test: phage binding, colonies from β3-GST wells / GST wells
[2] = biological target: GST-β3cyto (GST fusion protein of the β3 integrin cytoplasmic domain) (UniProt P05106); test: phage binding, colonies from β3-GST wells / BSA wells
[3] = biological target: GST-β5cyto (GST fusion protein of the β5 integrin cytoplasmic domain) (UniProt P18084); test: phage binding, colonies from β5-GST wells / GST wells
[4] = biological target: GST-β5cyto (GST fusion protein of the β5 integrin cytoplasmic domain) (UniProt P18084); test: phage binding, colonies from β5-GST wells / BSA wells
[5] = biological target: GST-β3cyto (GST fusion protein of the β3 integrin cytoplasmic domain) (UniProt P05106); test: phage binding to β3, colonies with Fyn-phosphorylated phage / unphosphorylated phage
[6] = biological target: GST-β3cyto (GST fusion protein of the β3 integrin cytoplasmic domain) (UniProt P05106); test: phosphorylated phage binding, β3 colonies / GST colonies
[7] = biological target: GST-β3cyto (GST fusion protein of the β3 integrin cytoplasmic domain) (UniProt P05106); test: phosphorylated phage binding, β3 colonies / BSA colonies
[8] = biological target: GST-β5cyto (GST fusion protein of the β5 integrin cytoplasmic domain) (UniProt P18084); test: phosphorylated phage binding, β5 colonies / BSA colonies
[9] = biological target: GST-β5cyto (GST fusion protein of the β5 integrin cytoplasmic domain) (UniProt P18084); test: phage binding to β5, colonies with Fyn-phosphorylated phage / unphosphorylated phage
[10] = biological target: GST-β5cyto (GST fusion protein of the β5 integrin cytoplasmic domain) (UniProt P18084); test: phosphorylated phage binding, β5 colonies / GST colonies
[11] = biological target: T1, Aminopeptidase A (APA, EC 3.4.11.7) on SK-RC-49/APA cells (UniProt Q07075 1-957, limits assumed); test: cell-based or functional assay
[12] = biological target: T2, GST-β3cyto (GST fusion protein of the β3 integrin cytoplasmic domain) (UniProt P05106 742-788); test: phage binding, colonies from β3-GST wells / GST wells
T2 construct: domain: cytoplasmic domain; Recombinant GST fusion coated on microtiter wells; also called β3-GST; β3 cytoplasmic domain fusion protein; not shown: glutathione S-transferase (GST) fusion partner
Text: (§1) β3 and β5 cytoplasmic domain-binding peptides were isolated by screening multiple phage libraries with recombinant GST fusion proteins that contained either GST-β3cyto or GST-β5cyto coated onto microtiter wells. Immobilized GST was used as a negative control for enrichment during the panning of each cytoplasmic domain. Phage were sequenced from randomly selected clones after three rounds of panning as disclosed elsewhere (Koivunen et al., 1995; Pasqualini et al., 1995). […] Randomly selected clones from panning rounds II and III were sequenced. Amino acid sequences of the phagemid encoded peptides were deduced from nucleotide sequences. The ratios were calculated by dividing the number of colonies recovered from β3-GST-coated wells and those recovered from GST or BSA.

[13] = biological target: T2, GST-β3cyto (GST fusion protein of the …); test: phage binding, colonies from β3-GST wells / BSA wells
Text: as §1

[14] = biological target: T3, GST-β5cyto (GST fusion protein of the β5 integrin cytoplasmic domain) (UniProt P18084 743-799); test: phage binding, colonies from β5-GST wells / BSA wells
T3 construct: domain: cytoplasmic domain; Recombinant GST fusion coated on microtiter wells; also called β5-GST; β5 cytoplasmic domain fusion protein; not shown: glutathione S-transferase (GST) fusion partner
T3 sequence (looked up): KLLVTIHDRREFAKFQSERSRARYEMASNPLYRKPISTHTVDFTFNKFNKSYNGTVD
Text: as §1

[15] = biological target: T3, GST-β5cyto (GST fusion protein of the …); test: phage binding, colonies from β5-GST wells / GST wells
Text: as §1

[16] = biological target: T1, Aminopeptidase A (APA, EC 3.4.11.7) on …; test: phage binding to SK-RC-49/APA cells against parental cells (not shown)
[17] = biological target: T1, Aminopeptidase A (APA, EC 3.4.11.7) on …; test: phage binding to SK-RC-49/APA cells against SK-RC-49 parental cells

T1 sequence (Q07075 whole entry, the tested form may be a part): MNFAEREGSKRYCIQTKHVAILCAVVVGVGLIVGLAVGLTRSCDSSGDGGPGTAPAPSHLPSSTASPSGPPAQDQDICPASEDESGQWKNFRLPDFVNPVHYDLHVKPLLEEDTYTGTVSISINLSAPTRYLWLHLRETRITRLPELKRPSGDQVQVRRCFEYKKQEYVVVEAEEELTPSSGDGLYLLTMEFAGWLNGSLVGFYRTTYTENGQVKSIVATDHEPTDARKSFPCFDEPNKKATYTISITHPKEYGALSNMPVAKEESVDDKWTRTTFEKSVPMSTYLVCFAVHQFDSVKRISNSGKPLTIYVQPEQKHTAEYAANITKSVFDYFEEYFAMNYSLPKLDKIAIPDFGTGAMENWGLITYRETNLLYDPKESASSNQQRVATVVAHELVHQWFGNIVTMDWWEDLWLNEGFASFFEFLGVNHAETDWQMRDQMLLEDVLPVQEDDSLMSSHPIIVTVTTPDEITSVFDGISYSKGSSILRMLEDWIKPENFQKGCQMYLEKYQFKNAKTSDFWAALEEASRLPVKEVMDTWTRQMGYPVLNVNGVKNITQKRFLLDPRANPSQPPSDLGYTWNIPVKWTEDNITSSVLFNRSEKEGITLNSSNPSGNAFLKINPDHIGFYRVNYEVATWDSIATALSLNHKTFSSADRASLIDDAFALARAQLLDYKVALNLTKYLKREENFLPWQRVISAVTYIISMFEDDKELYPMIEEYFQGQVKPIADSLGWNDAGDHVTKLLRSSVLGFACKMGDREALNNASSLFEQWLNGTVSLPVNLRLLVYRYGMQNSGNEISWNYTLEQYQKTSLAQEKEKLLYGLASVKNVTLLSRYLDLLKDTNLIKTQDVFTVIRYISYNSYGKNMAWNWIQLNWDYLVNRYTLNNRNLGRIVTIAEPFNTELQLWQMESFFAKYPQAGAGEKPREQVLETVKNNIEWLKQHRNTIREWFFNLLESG
T2 sequence (P05106 742-788): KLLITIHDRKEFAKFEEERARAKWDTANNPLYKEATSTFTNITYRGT
GST-β3cyto (GST fusion protein of the β3 integrin cytoplasmic domain) (UniProt P05106), sequence (P05106 742-788): as above

Binder: AGWLYMSWK [phage displaying … (SEQ ID NO:101)]
- β3/GST Ratio [1]: 1.8
- β3/BSA Ratio [2]: 2.4

Binder: CKLWQEDGY [phage displaying … (SEQ ID NO:108)]
- β5/GST Ratio [3]: 1.8
- β5/BSA Ratio [4]: 665

Binder: DWFSYYEL [phage displaying DWFSYYEL (SEQ ID NO:114)]
- β5/GST Ratio [3]: 1.7
- β5/BSA Ratio [4]: 153

Binder: GGGSYRHVE (not fully specified (residue 5); also: displayed on phage) [Fyn-phosphorylated phage displaying … (SEQ ID NO:115)]
- Phos/Unphos [5]: 13.2
- β3 or β5/GST [6]: 1.5
- β3 or β5/BSA [7]: 5.3

Binder: MLLGYRFEK (not fully specified (residue 5); also: displayed on phage) [Fyn-phosphorylated phage displaying … (SEQ ID NO:117)]
- Phos/Unphos [5]: 2.5
- β3 or β5/GST [6]: 3.5
- β3 or β5/BSA [7]: 2.7

Binder: TMLRYTVRL (not fully specified (residue 5); also: displayed on phage) [Fyn-phosphorylated phage displaying … (SEQ ID NO:118)]
- β3 or β5/BSA [8]: 2.2
- Phos/Unphos [9]: 14.3
- β3 or β5/GST [10]: 3.4

Binder: TMLRYFMFP (not fully specified (residue 5); also: displayed on phage) [Fyn-phosphorylated phage displaying … (SEQ ID NO:119)]
- β3 or β5/BSA [8]: 3.8
- Phos/Unphos [9]: 4.2
- β3 or β5/GST [10]: 2.3

Binder: TLRKYFHSS (not fully specified (residue 5); also: displayed on phage) [Fyn-phosphorylated phage displaying … (SEQ ID NO:120)]
- β3 or β5/BSA [8]: 15.2
- Phos/Unphos [9]: 3.8
- β3 or β5/GST [10]: 3.8

B1: CPRECESIC (SEQ ID NO:123) soluble cyclic peptide (peptide)
peptide: CPRECESIC
modifications: disulfide (positions not given here); not fully specified; also: disulfide positions not determined, mixture of six MS species, possibly dimers
- IC50 for APA enzyme inhibition (α-glutamyl-p-nitroanilide, colorimetric, SK-RC49/APA cells) [11]: 800 µM

Binder: CEQRQTQEGC (cysteine pairing not given here; also: displayed on phage, whole phage tested) [phage displaying CEQRQTQEGC (SEQ ID NO:93)]
- β3/GST Ratio [12]: 4.3 ratio
- β3/BSA Ratio [13]: 14 ratio

Binder: SDNRYIGSW (whole phage tested) [phage displaying SDNRYIGSW (SEQ ID NO:97)]
- β3/GST Ratio [12]: 3.3 ratio
- β3/BSA Ratio [13]: 32 ratio

Binder: YEWWYWSWA (whole phage tested) [phage displaying YEWWYWSWA (SEQ ID NO:98)]
- β3/GST Ratio [12]: 2.2 ratio
- β3/BSA Ratio [13]: 28.1 ratio

Binder: KVSWYLDNG (whole phage tested) [phage displaying KVSWYLDNG (SEQ ID NO:99)]
- β3/GST Ratio [12]: 2.1 ratio
- β3/BSA Ratio [13]: 20 ratio

Binder: SDWYYPWSW (whole phage tested; Selected on β3) [phage displaying SDWYYPWSW (SEQ ID NO:100)]
- β3/GST Ratio [12]: 2.1 ratio
- β3/BSA Ratio [13]: 157 ratio

Binder: CFQNRC (cysteine pairing not given here; also: displayed on phage, whole phage tested) [phage displaying CFQNRC (SEQ ID NO:102)]
- β3/GST Ratio [12]: 3.1 ratio
- β3/BSA Ratio [13]: 16 ratio

Binder: CNLSSEQC (cysteine pairing not given here; also: displayed on phage, whole phage tested) [phage displaying CNLSSEQC (SEQ ID NO:103)]
- β3/GST Ratio [12]: 2.7 ratio
- β3/BSA Ratio [13]: 62 ratio

Binder: CLRQSYSYNC (cysteine pairing not given here; also: displayed on phage, whole phage tested) [phage displaying CLRQSYSYNC (SEQ ID NO:104)]
- β3/GST Ratio [12]: 2.4 ratio
- β3/BSA Ratio [13]: 3.2 ratio

Binder: CYIWPDSGLC (cysteine pairing not given here; also: displayed on phage, whole phage tested) [phage displaying CYIWPDSGLC (SEQ ID NO:105)]
- β5/BSA Ratio [14]: 193 ratio
- β5/GST Ratio [15]: 5.2 ratio

Binder: CEPYWDGWFC (cysteine pairing not given here; also: displayed on phage, whole phage tested) [phage displaying CEPYWDGWFC (SEQ ID NO:106)]
- β5/BSA Ratio [14]: 400 ratio
- β5/GST Ratio [15]: 3.1 ratio

Binder: CKEDGWLMTC (whole phage tested) [phage displaying CKEDGWLMTC (SEQ ID NO:107)]
- β5/BSA Ratio [14]: 836 ratio
- β5/GST Ratio [15]: 2.3 ratio

Binder: CARLEVLLPC (cysteine pairing not given here; also: displayed on phage, whole phage tested) [phage displaying CARLEVLLPC (SEQ ID NO:94)]
- β3/GST Ratio [12]: 2.8 ratio
- β3/BSA Ratio [13]: 18.7 ratio

Binder: CWDQNYLDDC (whole phage tested) [phage displaying CWDQNYLDDC (SEQ ID NO:109)]
- β5/BSA Ratio [14]: 100 ratio
- β5/GST Ratio [15]: 1.5 ratio

Binder: DEEGYYMMR (whole phage tested) [phage displaying DEEGYYMMR (SEQ ID NO:110)]
- β5/BSA Ratio [14]: 29 ratio
- β5/GST Ratio [15]: 11.5 ratio

Binder: KQFSYRYLL (whole phage tested) [phage displaying KQFSYRYLL (SEQ ID NO:111)]
- β5/BSA Ratio [14]: 8 ratio
- β5/GST Ratio [15]: 4.5 ratio

Binder: VVISYSMPD (whole phage tested) [phage displaying VVISYSMPD (SEQ ID NO:112)]
- β5/BSA Ratio [14]: 28 ratio
- β5/GST Ratio [15]: 3.8 ratio

Binder: SDWYYPWSW (whole phage tested; Selected on β5) [phage displaying SDWYYPWSW (SEQ ID NO:113)]
- β5/BSA Ratio [14]: 304 ratio
- β5/GST Ratio [15]: 2.4 ratio

Binder: YDWWYPWSW (whole phage tested) [phage displaying YDWWYPWSW (SEQ ID NO:95)]
- β3/GST Ratio [12]: 5.6 ratio
- β3/BSA Ratio [13]: 163 ratio

Binder: GLDTYRGSP (whole phage tested) [phage displaying GLDTYRGSP (SEQ ID NO:96)]
- β3/GST Ratio [12]: 4.1 ratio
- β3/BSA Ratio [13]: 48 ratio

B2: phage displaying CYNLCIRECESICGADGACWTWCADGCSRSC (SEQ ID NO:125) (peptide)
peptide: CYNLCIRECESICGADGACWTWCADGCSRSC
notes: whole phage tested; also called tandem phage
- fold enrichment relative to SK-RC-49 parental cells [16]: 6 fold

Binder: CPKVCPRECESNC (whole phage tested) [phage displaying CPKVCPRECESNC (SEQ ID NO:127)]
- fold enrichment relative to SK-RC-49 parental cells [16]: 6 fold

Binder: CLGQCASICVNDC (whole phage tested) [phage displaying CLGQCASICVNDC (SEQ ID NO:126)]
- fold enrichment relative to SK-RC-49 parental cells [16]: 6 fold

Binder: CGTGCAVECEVVC (whole phage tested) [phage displaying CGTGCAVECEVVC (SEQ ID NO:128)]
- binding result [17]: no binding

B3: phage displaying CAVACWADCQLGC (SEQ ID NO:129) (peptide)
peptide: CAVACWADCQLGC
notes: one of the other phage selected in round 2
- binding result [17]: no binding

B4: phage displaying CSGLCTVQCLEGC (SEQ ID NO:130) (peptide)
peptide: CSGLCTVQCLEGC
notes: as for B3
- binding result [17]: no binding

B5: phage displaying CSMMCLEGCDDWC (SEQ ID NO:131) (peptide)
peptide: CSMMCLEGCDDWC
notes: as for B3
- binding result [17]: no binding
